Measurements published in PMC8017925, “Structural basis for differential recognition of phosphohistidine-containing peptides by 1-pHis and 3-pHis monoclonal antibodies” (Proceedings of the National Academy of Sciences of the …, 2021).

Test system: ACLYana-3-pHis peptide (AGAG-3-pHis-AGAG)
Assay: BLI binding kinetics of 3-pHis Fabs with affinity-purified pHis peptide
Protocol: Biolayer interferometry (BLI) studies were performed to determine the relative affinity of pHis Fabs to in situ phosphorylated His peptides versus the phosphomimetic substrates. The N-terminally biotinylated peptides were immobilized on streptavidin biosensors and the rate of association (ka) and dissociation (kd) were determined by varying the pHis Fab concentration. Equilibrium dissociation constants (KD) were determined by fitting the experimental data to a 1:1 Langmuir binding model. ACLYana-1-pTza and ACLYana-3-pTza peptides were used to determine affinity to 1-pHis and 3-pHis Fabs, respectively (Fig. 3 A–E and Table 1). […] The two isomers were separated from each other by passing the reaction through affinity columns containing 1-pHis mAbs using SC1-1 or SC50-3 IgGs or 3-pHis mAbs using SC39-4, SC44-8, and SC56-2 IgGs. The eluates thus contained either predominantly 1-pHis or 3-pHis peptides. These peptides were used to determine the affinity to their respective isomer class of pHis Fabs (Fig. 3 F–J, Table 1, and SI Appendix, Fig. S5). […] This experimental observation is well supported by the higher number of hydrogen bonds that support the SC44-8:3-pTza interaction compared to other pHis Fabs (SI Appendix, Table S5). […] There are at least three reasons for the lower affinity of the mAbs for pHis peptides compared to pTza peptides: The continuous hydrolysis of phosphate from the pHis peptides during the course of the experiment (SI Appendix, Fig. S6), a reduction in the number of hydrogen bond interactions due to one less nitrogen in the imidazole ring compared to triazolyl ring (Fig. 4 and SI Appendix, Fig. S8), and inherently different electronic properties of the imidazole and triazolyl rings in His and Tza, respectively ([20]).
Fig. 3. Binding kinetics of pHis Fabs with cognate pTza and pHis peptides. BLI studies of immobilized peptides (ACLYana-1/3-pTza and phosphorylated ACLYana) with varying concentrations of the pHis Fabs were carried out in triplicate on an Octet Red96e instrument (FortéBio). SC1-1 (A) and SC50-3 (B) pHis Fab interaction with their ACLYana-1-pTza peptides. SC39-4 (C), SC44-8 (D), and SC56-2 (E) pHis Fabs interactions with ACLYana-3-pTza peptides. SC1-1 (F), SC50-3 (G), SC39-4 (H), SC44-8 (I), and SC56-2 (J) pHis Fabs interactions with their affinity-purified ACLYana-pHis peptides are represented, Right. The experimental data are represented in the black dashed lines and the nonlinear least-squares fitting was represented in the red continuous lines. The χ^2 for the goodness of fit is under 1.0 for the all the plots.
The binding kinetics of pHis Fabs with the peptides (pTza and pHis) were evaluated with an Octet RED96e (FortéBio). Streptavidin-coated biosensors (FortéBio) were presoaked in buffer containing 50 mM Hepes pH 8.0, 150 mM NaCl, 0.05% Tween-20, and 0.2% BSA for 15 min. The biotinylated pTza peptides or pHis peptides (20 nM) with and without phosphoramidate treatment were coated onto these streptavidin biosensors and analyzed for their binding to varying concentrations of the pHis Fabs with an association time of 120 s and dissociation time of 200 s. The entire set of experiments was repeated three times. The data were analyzed using the Octet software (FortéBio) and the rates of association and dissociation were obtained by global fitting data to the 1:1 Langmuir interaction model. […]
Peptides used in the DSF and BLI experiments were synthesized by the Salk Peptide Synthesis Core. These peptides were N-terminally biotinylated and C-terminally amidated. They were synthesized using standard Fmoc chemistry on a Gyros Protein Technologies Tribute peptide synthesizer with UV monitoring. Following the deprotection, peptides were analyzed by mass spectrometry and analytical HPLC by the Proteomics Core at Salk. The peptides were HPLC purified to 99% purity by 21st Century Biochemicals, Inc. The Fmoc-pTza’s were synthesized at 10 g scale for incorporation into the peptides. […]

[1] = BLI, affinity-purified ACLYana-3-pHis peptide, 1:1 Langmuir global fit, triplicate

- ka [1]: 93600 ± 319 M⁻¹ s⁻¹
- kd [1]: 0.0017 ± 3.32e-06 s⁻¹
- Kd (BLI, ACLYana phosphorylated with phosphoramidate (8 h, 23 °C), 3-pHis isomer affinity-purified on 3-pHis IgG column, immobilized on streptavidin biosensors, Hepes pH 8.0, 1:1 Langmuir global fit, triplicate): 18.2 nM
- BLI signal (maximum) with ACLYana (phosphorylated ACLYana, GpHAGAG motif): 2.0 nm
- affinity for 3-pHis peptides, times (fold) weaker than for the 3-pTza peptide (ratio of BLI KD, 3-pHis versus 3-pTza peptide): 75 times
B1: SC44-8: Fab of rabbit 3-pHis-specific monoclonal antibody with proclivity for GpHAGA motif (antibody, V domains shown)
VH: QSVKESGRGLVQPGGSLTLTCTASGFSIDSYGFSWVRQAPGKGLEHIGYLTAGGRAFYASWAKSRSTITRNTNENTVTLKMTSLTAADTATYFCAKLGSGNPVAIWGPGTLVTVSS
VL: QVLTQTPSFTSAAVGGTVTINCQSSQSVWRNKNLAWYQQKPGQPPKRLIYAIATLDSGVPSRFSGSGSGTQFTLTISDVQCDDAATYYCVGHYGSENDAYYAFGGGTEVVVK
